According to patent US20160159910A1 (Genentech, published 2016):

Experiments:
human B7-H4 [1] = molecular target: T1, human B7-H4 (human, UniProt Q7Z7D3 29-282); assay: Scatchard analysis, radioligand cell binding on MX-1 cells (endogenous human B7-H4)
T1 construct: On stably transfected 293 cells (recombinant) or on MX-1 / SKBR3 tumor cells (endogenous); the cell is named under assay; also called huB7-H4; hB7-H4
T1 sequence: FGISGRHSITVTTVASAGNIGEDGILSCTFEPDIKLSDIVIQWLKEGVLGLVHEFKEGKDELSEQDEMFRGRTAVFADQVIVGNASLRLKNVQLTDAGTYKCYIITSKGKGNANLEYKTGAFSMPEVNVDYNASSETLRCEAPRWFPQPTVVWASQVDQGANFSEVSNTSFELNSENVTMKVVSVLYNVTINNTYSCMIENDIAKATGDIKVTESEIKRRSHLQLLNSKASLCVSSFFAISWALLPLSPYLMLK
Experimental: Competition assay mixtures of 50 μL volume containing a fixed concentration of [I¹²⁵] labeled antibody and decreasing concentrations of serially diluted, unlabeled antibody were placed into 96-well plates. […] Cells were detached from the flask using Sigma Cell Dissociation Solution and were washed with binding buffer, which consisted of Dulbecco's Modified Eagle Medium (DMEM) with 1% bovine serum albumin (BSA), 300 mM human IgG and 0.1% sodium azide. The washed cells were added to the 96 well plates at a density of 100,000 cells in 0.2 mL of binding buffer. The final concentration of the [I¹²⁵] labeled antibody in each well was ˜250 pM. The final concentration of the unlabeled antibody in the competition assay ranged from 1000 nM through ten 2-fold dilution steps to a 0 nM buffer-only assay. Competition assays were carried out in triplicate. Competition assays were incubated for 2 hours at room temperature. […] The filters were counted on a Wallac Wizard 1470 gamma counter (PerkinElmer Life and Analytical Sciences Inc.; Wellesley, Mass.). The binding data was evaluated using NewLigand software (Genentech), which uses the fitting algorithm of Munson and Robard to determine the binding affinity of the antibody (Munson and Robard 1980).

[2] = molecular target: T2, B7-H4 (IgV; G28-F150 including spacer S151-V157)-irrelevant (Ig-C) chimeric membrane protein (construct-88) (human, UniProt Q7Z7D3 28-157); assay: FACS on 293 cells expressing the Ig-chimera with the B7-H4 Ig-V domain
T2 construct: also called B7-H4 (Ig-V):MolX (Ig-C, TM, CD); Ig-chimera expressing the B7-H4 Ig-V domain; not shown: Ig-C, transmembrane and cytoplasmic parts of the unnamed irrelevant protein (MolX) that display the domain on the cell; N-terminal Herpes-gD tag
T2 sequence: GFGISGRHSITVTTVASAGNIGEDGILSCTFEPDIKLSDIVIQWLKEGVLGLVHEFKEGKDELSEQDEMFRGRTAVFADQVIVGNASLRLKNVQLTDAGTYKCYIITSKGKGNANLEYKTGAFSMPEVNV
Text: Briefly, 293 cells were transiently transfected with constructs 88 & 88B using polyfect.

human B7-H4 [3] = molecular target: T1, human B7-H4; assay: Scatchard analysis, radioligand cell binding on 293 cells expressing recombinant B7-H4
Experimental: (§1) Competition assay mixtures of 50 μL volume containing a fixed concentration of [I¹²⁵] labeled antibody and decreasing concentrations of serially diluted, unlabeled antibody were placed into 96-well plates. […] Cells were detached from the flask using Sigma Cell Dissociation Solution and were washed with binding buffer, which consisted of Dulbecco's Modified Eagle Medium (DMEM) with 1% bovine serum albumin (BSA), […] and 0.1% sodium azide. The washed cells were added to the 96 well plates at a density of 100,000 cells in 0.2 mL of binding buffer. The final concentration of the [I¹²⁵] labeled antibody in each well was ˜250 pM. The final concentration of the unlabeled antibody in the competition assay ranged from 1000 nM through ten 2-fold dilution steps to a 0 nM buffer-only assay. Competition assays were carried out in triplicate. Competition assays were incubated for 2 hours at room temperature. After the 2-hour incubation, the competition assays were transferred to a Millipore Multiscreen filter plate (Billerica, Mass.) and washed 4 times with binding buffer to separate the free from bound [I¹²⁵] labeled antibody. The filters were counted on a Wallac Wizard 1470 gamma counter (PerkinElmer Life and Analytical Sciences Inc.; Wellesley, Mass.). The binding data was evaluated using NewLigand software (Genentech), which uses the fitting algorithm of Munson and Robard to determine the binding affinity of the antibody (Munson and Robard 1980).

mouse B7-H4 = molecular target: T3, mouse B7-H4 (mouse, UniProt Q7TSP5 29-283); assay: as above
T3 construct: On stably transfected 293 cells; also called muB7-H4; recombinant mouse B7-H4
T3 sequence: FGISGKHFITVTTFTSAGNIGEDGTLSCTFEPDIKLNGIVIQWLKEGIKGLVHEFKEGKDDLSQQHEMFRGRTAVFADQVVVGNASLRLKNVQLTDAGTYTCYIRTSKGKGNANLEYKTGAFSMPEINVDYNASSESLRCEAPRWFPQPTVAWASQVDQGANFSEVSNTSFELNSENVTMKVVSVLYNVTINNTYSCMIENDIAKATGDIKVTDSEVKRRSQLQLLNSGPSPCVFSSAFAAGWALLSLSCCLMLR
Experimental: as §1

cynomolgus monkey B7-H4 = molecular target: T4, cynomolgus monkey B7-H4 (cynomolgus monkey, UniProt Q7Z7D3 29-282 (human entry)); assay: as above
T4 construct: On stably transfected 293 cells; also called cyno B7-H4; recombinant cynomolgus monkey B7-H4
T4 chain: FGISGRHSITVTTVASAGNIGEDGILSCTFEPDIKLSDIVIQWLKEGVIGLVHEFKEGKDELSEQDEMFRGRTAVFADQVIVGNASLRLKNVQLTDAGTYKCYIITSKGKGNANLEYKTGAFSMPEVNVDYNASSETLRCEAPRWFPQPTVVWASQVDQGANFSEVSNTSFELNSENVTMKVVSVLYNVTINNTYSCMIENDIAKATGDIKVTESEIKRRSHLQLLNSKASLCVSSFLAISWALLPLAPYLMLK
Experimental: as §1

rat B7-H4 = molecular target: T5, rat B7-H4 (rat, UniProt Q501W4 29-282); assay: as above
T5 construct: On stably transfected 293 cells; also called recombinant rat B7-H4
T5 sequence: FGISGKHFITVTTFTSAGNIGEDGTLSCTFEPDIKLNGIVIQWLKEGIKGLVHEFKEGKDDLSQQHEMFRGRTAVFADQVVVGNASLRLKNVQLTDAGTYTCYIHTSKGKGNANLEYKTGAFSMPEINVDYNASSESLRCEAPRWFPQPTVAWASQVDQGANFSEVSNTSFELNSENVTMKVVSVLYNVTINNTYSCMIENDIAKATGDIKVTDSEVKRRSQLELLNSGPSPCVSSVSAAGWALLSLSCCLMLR
Experimental: as §1

- Kd (human B7-H4 [1]): 7.4 nM
- fold binding compared to mock transfected 293 cells [2]: ~44 fold
- Kd (human B7-H4 [3]): 2.9 nM
- Kd (mouse B7-H4): 5 nM
- Kd (cynomolgus monkey B7-H4): 3.7 nM
- Kd (rat B7-H4): 2.7 nM
B1: hu1D11.v1.9 varD (antibody)
heavy: not shown
light: DIQMTQSPSSLSASVGDRVTITCKASQGFNKYVAWYQQKPGKAPKLLIYYTSTLQPGVPSRFSGSGSGRDYTLTISSLQPEDFATYYCLQYGDLLYAFGQGTKVEIKRTVAAPSVFIFPPSDEQLKSGTASVVCLLNNFYPREAKVQWKVDNALQSGNSQESVTEQDSKDSTYSLSSTLTLSKADYEKHKVYACEVTHQGLSSPVTKSFNRGEC
notes: IgG1 / kappa; also called h1D11v1.9_VarD; h1D11v1.9varD
